Experimental data published in article PMC6523629.

Target: tropomyosin receptors kinase A (TrkA) (rat (endogenous in PC12)) (UniProt P35739)
UniProt P35739, sequence (P35739 33-799): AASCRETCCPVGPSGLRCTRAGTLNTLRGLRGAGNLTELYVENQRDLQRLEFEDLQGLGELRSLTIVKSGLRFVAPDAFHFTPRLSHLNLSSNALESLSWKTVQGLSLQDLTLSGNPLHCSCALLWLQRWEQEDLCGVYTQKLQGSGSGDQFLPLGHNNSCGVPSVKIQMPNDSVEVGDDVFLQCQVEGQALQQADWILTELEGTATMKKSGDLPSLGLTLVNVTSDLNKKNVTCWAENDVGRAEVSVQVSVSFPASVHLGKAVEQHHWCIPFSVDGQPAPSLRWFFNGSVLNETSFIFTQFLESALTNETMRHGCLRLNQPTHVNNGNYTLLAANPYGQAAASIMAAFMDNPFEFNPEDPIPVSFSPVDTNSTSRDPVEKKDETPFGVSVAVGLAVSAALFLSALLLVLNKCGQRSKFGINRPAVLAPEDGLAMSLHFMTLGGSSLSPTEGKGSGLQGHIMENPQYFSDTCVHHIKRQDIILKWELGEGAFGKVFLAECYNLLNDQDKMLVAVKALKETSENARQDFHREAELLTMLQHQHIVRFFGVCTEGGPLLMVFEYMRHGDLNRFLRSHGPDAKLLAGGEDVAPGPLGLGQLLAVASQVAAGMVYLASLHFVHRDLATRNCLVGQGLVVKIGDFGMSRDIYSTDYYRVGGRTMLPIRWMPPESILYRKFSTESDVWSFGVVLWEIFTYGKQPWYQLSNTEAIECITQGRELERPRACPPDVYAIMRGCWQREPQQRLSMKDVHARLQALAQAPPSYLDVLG

Substance	phosphorylation of TrkA (Tyr-490), Western blot, PC12 cells, 50 uM peptide with 1 uM CuSO4, 10 min, % of the untreated control [%]	phosphorylation of TrkA (Tyr-490), Western blot, PC12 cells, 50 uM peptide, 10 min, % of the untreated control [%]
NGF(1-14) (peptide)	825	540
d-NGF(1-15) (peptide)	1020	653
